What was measured:
[1] = biological target: carboxyl terminal APC fragment (UniProt P25054)
carboxyl terminal APC fragment, sequence (P25054 2168-2843): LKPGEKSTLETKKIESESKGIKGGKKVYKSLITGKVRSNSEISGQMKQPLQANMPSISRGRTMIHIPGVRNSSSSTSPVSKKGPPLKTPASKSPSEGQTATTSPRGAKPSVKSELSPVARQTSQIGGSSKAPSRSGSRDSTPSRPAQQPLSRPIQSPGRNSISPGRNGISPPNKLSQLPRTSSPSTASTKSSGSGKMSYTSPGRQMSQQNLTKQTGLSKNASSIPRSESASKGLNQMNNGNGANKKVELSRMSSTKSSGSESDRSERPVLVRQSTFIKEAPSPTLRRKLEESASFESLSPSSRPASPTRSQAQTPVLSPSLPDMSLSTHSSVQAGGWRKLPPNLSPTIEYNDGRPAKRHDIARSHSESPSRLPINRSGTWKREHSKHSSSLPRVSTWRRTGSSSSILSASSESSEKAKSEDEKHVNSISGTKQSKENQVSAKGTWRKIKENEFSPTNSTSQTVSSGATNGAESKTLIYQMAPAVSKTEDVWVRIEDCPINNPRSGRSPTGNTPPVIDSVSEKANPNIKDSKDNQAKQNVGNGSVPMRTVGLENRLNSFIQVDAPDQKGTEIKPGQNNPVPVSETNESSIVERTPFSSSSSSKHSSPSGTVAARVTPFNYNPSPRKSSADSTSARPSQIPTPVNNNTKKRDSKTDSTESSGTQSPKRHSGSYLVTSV

Protein: MNSRPRRRDIDRLEHLHLTEFGLKLGQKIFLLNKRDFILFLSLF (enzyme) [CATX-2 protein]
- phosphorylation in vitro (γ-32P) (poly-threonine): CATX-2 protein could phosphorylate histone 5 µg, poly-threonine 5 µg
- phosphorylation in vitro (γ-32P) (histone): CATX-2 protein could phosphorylate histone 5 µg
- phosphorylation in vitro (γ-32P) [1]: CATX-2 protein could phosphorylate histone 5 µg, poly-threonine 5 µg, and COOH-APC fragment (1-5 µg)
